In the PETadex activity labels (doi:10.1002/cssc.202101062):
Where a chain is given by its changes, count along the chain named.

B1: unnamed (protein)
chain: MANPYERGPDPTVQSIEAVRGPFSVSETNVSRLVVTGFGGGTIYYPRDTSQGTFGAVAIAPGFTASEGSMAWYGPRIASQGFVVFTIDTLTRLDQPDSRGRQLLAALDYLTQRSSVRSRIDSSRLAVMGHSMGGGGSLEASESRPSLKASIPLTPWNLKKNWRNNRVPTLIVGAENDSIASVRTHAEPFYESIPSTTNKAYLELNNATHFAPNISNTTIAKYSISWLKRFVDNDTRYEQFLCPPPRPDRDIEEYRCTCPY
B2: unnamed (protein)
chain: MANPYERGPAPTTSSIEASRGPFAIASVTVSRSSVSGFGGGTIYYPRDTSEGTFGAVAIAPGFTADEGSMAWYGPRIASQGFVVFTIDTITRLDQPDSRGRQLLAALDYLTQRSSVRSRIDSSRLAVMGHSMGGGGSLEASVSRPSLKAAIPLTPWNLKKNWRDVRVPTLIVGAESDSIASVRTHAEPFYESIPSTTNKAYLELNNATHFAPNISNTTIAKYSISWLKRFVDNDTRYEQFLCPPPRPDRDIEEYRSTCPH
B3: unnamed (protein)
chain: MDNPYERGPDPTTQSVEAARGPYAVSQITVGGQFGSYSGGTIYYPTSTADGKFGAVAIAPGFLSFQSSVAWLGPRLASQGFVVMTIDTGTIFDQPAQRGDQLLDALDFLTQRSSVKDRIDPNRLAVAGWSMGGGGSLEAAADRPSLKAAIPMAGWNLNTNWSRLTTPVLVVGVQNDLIAPVGSHSEPFYNSIRSEKAYLELAGGSHFTVTSANTPQAKLMISWLKRFVDNDTRYEQFICPGPSRGFSVSEYRSTCPF
B4: unnamed (protein)
chain: B3 chain with D2E, L76I, M131W, G182A, S183M, F257Y
B5: unnamed (protein)
chain: B3 chain with A49T, L76I, G182A, S183M

Substrate: PET
Test: Proxy for plastic degradation [Weight/mass loss]
Details: pH 8; 45 °C

Row | Protein | Proxy for plastic degradation [%]
1 | B1 | 2
2 | B2 | 1
3 | B3 | 1
4 | B4 | 0.5
5 | B5 | 2

Same assay, conditions: pH 8; 50 °C

Row | Protein | Proxy for plastic degradation [%]
6 | B1 | 2.5
7 | B2 | 2.5
8 | B3 | 1.5
9 | B4 | 1
10 | B5 | 3

Same assay, conditions: pH 8; 55 °C

Row | Protein | Proxy for plastic degradation [%]
11 | B1 | 1
12 | B2 | 1
13 | B3 | 1
14 | B4 | 0.5
15 | B5 | 5

Same assay, conditions: pH 8; 60 °C

Row | Protein | Proxy for plastic degradation [%]
16 | B1 | 0.5
17 | B2 | 0.5
18 | B3 | 1
19 | B4 | 0.5
20 | B5 | 8

Substrate: gfPET
Test: Proxy for plastic degradation [Released monomer concentration (HPLC/LC-MS) (TPA+MHET+BHET)]
Details: 40 °C

Row | Protein | Proxy for plastic degradation [mmol/h]
21 | B1 | 0
22 | B2 | 0
23 | B3 | 0
24 | B4 | 0
25 | B5 | 0

Same assay, conditions: 50 °C

Row | Protein | Proxy for plastic degradation [mmol/h]
26 | B1 | 0.2
27 | B2 | 0.38
28 | B3 | 0.2
29 | B4 | 0.1
30 | B5 | 0.1

Same assay, conditions: 55 °C

Row | Protein | Proxy for plastic degradation [mmol/h]
31 | B1 | 0.22
32 | B2 | 0.2
33 | B3 | 0.21
34 | B4 | 0.13
35 | B5 | 0.18

Same assay, conditions: 60 °C

Row | Protein | Proxy for plastic degradation [mmol/h]
36 | B1 | 0.19
37 | B2 | 0.1
38 | B3 | 0.1
39 | B4 | 0.05
40 | B5 | 0.1

Same assay, conditions: 65 °C

Row | Protein | Proxy for plastic degradation [mmol/h]
41 | B1 | 0.1
42 | B2 | 0.05
43 | B3 | 0
44 | B4 | 0
45 | B5 | 0

Same assay, conditions: 70 °C

Row | Protein | Proxy for plastic degradation [mmol/h]
46 | B1 | 0.08
47 | B2 | 0.05
48 | B3 | 0
49 | B4 | 0
50 | B5 | 0

Same assay, conditions: 75 °C

Row | Protein | Proxy for plastic degradation [mmol/h]
51 | B1 | 0.06
52 | B2 | 0.05
53 | B3 | 0
54 | B4 | 0
55 | B5 | 0

Same assay, conditions: 80 °C

Row | Protein | Proxy for plastic degradation [mmol/h]
56 | B1 | 0.05
57 | B2 | 0.05
58 | B3 | 0
59 | B4 | 0
60 | B5 | 0

Same assay, conditions: 85 °C

Row | Protein | Proxy for plastic degradation [mmol/h]
61 | B1 | 0.05
62 | B2 | 0.05
63 | B3 | 0
64 | B4 | 0
65 | B5 | 0
